These results are taken from PMC8789855, “Ion currents through Kir potassium channels are gated by anionic lipids” (Nature Communications, 2022).

Numbering of substitutions follows the chain as printed. Numbers in names are those of the source.

As usually defined, the stoichiometry N is the number of molecules, sites or subunits per partner or assembly.

Data set [1] deals with T1, KirBac3.1-SCS (Paramagnetospirillum magnetotacticum, UniProt D9N164, C71S/C262S).
T1 construct: prokaryotic Kir channel, native Cys119 kept as only cysteine, expressed in E. coli C41(DE3), Co2+ IMAC, homotetramer, reconstituted in liposomes or bilayers; PDB 6O9U is the native parent, 7N9L/7N9K are SCS and SCS-L124M
T1 sequence (D9N164 1-295 C71S/C262S): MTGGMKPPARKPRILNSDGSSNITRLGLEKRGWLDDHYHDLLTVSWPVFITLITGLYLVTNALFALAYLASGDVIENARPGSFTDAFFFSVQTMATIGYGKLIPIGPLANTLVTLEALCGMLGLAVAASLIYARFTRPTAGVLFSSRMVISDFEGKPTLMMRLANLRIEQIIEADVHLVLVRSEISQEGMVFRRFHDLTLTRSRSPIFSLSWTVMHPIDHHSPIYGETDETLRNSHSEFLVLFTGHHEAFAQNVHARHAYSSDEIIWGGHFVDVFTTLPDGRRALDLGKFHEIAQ
The data set can be described thus: ACMA liposome K+ flux assay; single-channel recording; PEGylation gel shift. Format: biochemical. To be noted: covalent, at Cys119 near fenestration; activator; pH 8.5 (flux assay).

In data set [2] the target is T1, KirBac3.1-SCS. The experiment in a line: single-channel recording in planar lipid bilayer. Format: biochemical. The note with it: covalent, at Cys119 near fenestration; pH 7.4, 23 C, -80 mV.
Data set [3] concerns the molecule itself. The experiment in a line: native MS; 200 mM ammonium acetate pH 8.0, 0.5% C8E4 (2x CMC); modified Q-Exactive.
Data set [4] concerns the molecule itself. The data set can be described thus: SEC; Superdex 200 10/30 in 20 mM TRIS pH 8.0, 150 mM KCl, 0.02% (w/v) DDM; fractions of the tetramer collected. Background: In gel filtration, larger molecules generally elute earlier.
Data set [5] deals with the molecule itself. The experiment in a line: crystal structure; sitting drops, vapour diffusion, 4 mg/ml protein; PEG 4,000, PEG 8000, PEG 400, 90 mM HEPES pH 7.5, 1 mM TCEP and 50 mM EDTA or 10 mM CaCl2.

For the molecule `CCCCCCCCCCSS(C)(=O)=O` [decyl-MTS], the “ACMA liposome K+ flux assay; single-channel recording; PEGylation gel shift” value at KirBac3.1-SCS [1] is reported as “bound decyl chains (C119-decyl) increased activity relative to wild type”. Take `CCCCCCCCSS(C)(=O)=O` [octyl MTS-reagent (C119-octyl)]: the “single-channel recording in planar lipid bilayer” value at KirBac3.1-SCS [2] is recorded as “channels derivatised with one of three MTS-reagents to titrate the effect of chain length”.

B1: KirBac3.1 (wild type prokaryotic Kir channel) (natural protein)
chain: T1 sequence (D9N164 1-295 C71S/C262S) with S71C, S262C
notes: KirBac3.1, prokaryotic inward rectifier K+ channel; Co-purifies with phospholipids (PG, PE); also called native KirBac3.1; wild type KirBac3.1; source: E. coli C41(DE3), purified (Co2+ IMAC, Superdex 200 SEC, in DDM)
On to B1, for which the “stoichiometry N” value in data set [3] came to 4.

B2: KirBac3.1-SCS derivatised with hexyl-MTS at Cys119 (natural protein)
chain: T1 sequence (D9N164 1-295 C71S/C262S)
modifications: hexyl chain from hexyl-methylthiosulfonate on Cys119
notes: KirBac3.1 on the otherwise cysteine-less SCS background (C71S-C262S), native Cys119 kept and derivatised; also called C119-hexyl; source: E. coli C41(DE3), purified, reacted with hexyl-MTS, re-purified by SEC
On to B2, for which the binding result in data set [4] is “binds”.

B3: KirBac3.1-SCS (C71S-C262S background) (natural protein)
chain: T1 sequence (D9N164 1-295 C71S/C262S)
notes: KirBac3.1 with two native cysteines mutated to serine; Mutant cDNA bought from Genscript; source: E. coli C41(DE3), purified (Co2+ IMAC, Superdex 200 SEC, in DDM)
Regarding B3, the binding result in data set [5] is recorded as “binds”.

B4: KirBac3.1 L124M (on the C71S-C262S background) (natural protein)
chain: T1 sequence (D9N164 1-295 C71S/C262S) with L124M
notes: KirBac3.1 with L124M on the SCS (C71S-C262S) background; Mutant cDNA bought from Genscript; also called Leu124M; source: E. coli C41(DE3), purified (Co2+ IMAC, Superdex 200 SEC, in DDM)
With B4, the binding result in data set [5] is on record as “binds”.

B5: KirBac3.1-SCS derivatised with decyl-MTS at Cys119 (natural protein)
chain: T1 sequence (D9N164 1-295 C71S/C262S)
modifications: decyl chain from decyl-methylthiosulfonate on Cys119
notes: KirBac3.1 on the otherwise cysteine-less SCS background (C71S-C262S), native Cys119 kept and derivatised; also called C119-decyl; source: E. coli C41(DE3), purified, reacted with decyl-MTS, re-purified by SEC
In the case of B5, the binding result in data set [4] is on record as “binds”.
